Test results reported in patent US20080274129A1 (BIOTECH SYNERGY, published 2008).
Non-standard residues stand in square brackets, D forms with d. No end group written: not given here. Aib = CC(C)(N)C(=O)O

Assays:
[1] = target: T1, HLA-A2.1 molecule (purified) (human); assay: peptide binding to purified HLA-A2.1 molecule
T1 construct: limits of the heavy chain and presence of b2m in the preparation are not described; also called HLA-A*0201; prototype HLA-A2.1 molecule

HLA-A2 supertype alleles = assay: peptide binding to purified MHC molecules of the HLA-A2 supertype; count of alleles bound

| binding result [1] | No. A2 Alleles Crossbound (HLA-A2 supertype alleles) [alleles] | Binder |
| --- | --- | --- |
| binds | 5 | KVAEIVHFL (also called peptide 1352.03) [MAGE-3.112I5] |
| binds | 5 | IMIGHLVGV (also called peptide 1352.02) [CEA.691H5] |
|  | 4 | KL[Aib]PVQLWV (not fully specified) [p53.139L2B3] |
